The results in this text go back to patent US20240279318A1 (NANJING LEGEND BIOTECH, published 2024).

The chains are these.
B1: 70-AS170036 VL1VH1-57K98I108A (scFv)
scFv: QSALTQPRSVSGSPGQSVTISCAGTSSDVGSENYVSWYQQHPGKAPKLMIYQVNKRASGVPDRFSGSKSGNTASLTISGLQAEDEADYYCASYRSSDINIVFGGGTKLTVLGGGGSGGGGSGGGGSEVQLVESGGGLVQPGGSLRLSCAASGFTFSSYAMSWVRQAPGKGLEWVSTINSGTGKPYYADSVKGRFTISRDNSKNTLYLQMNSLRAEDTAVYYCAKNFFDGSWFLAPPAMDYWGQGTLVTVSSHHHHHH
notes: Crude scFv mutein of AS170036 VL1VH1
B2: 82-AS170036 VL1VH1-57M98Q108A (scFv)
scFv: B1 scFv with I98Q, K183M
notes: as for B1
B3: 75-AS170036 VL1VH1-57K98Q108S (scFv)
scFv: B1 scFv with I98Q, A234S
notes: as for B1
B4: AS170036 VL1VH1-VHG108D (scFv)
scFv: B1 scFv with I98H, K183S, A234D
B5: AS170036 VL1VH1-VHG108S (scFv)
scFv: B1 scFv with I98H, K183S, A234S
B6: AS170036 VL1VH1-VHG56N (scFv)
scFv: B1 scFv with I98H, G182N, K183S, A234G
B7: AS170036 VL1VH1-VHG56Y (scFv)
scFv: B1 scFv with I98H, G182Y, K183S, A234G
B8: AS170036 VL1VH1-VHG108A (scFv)
scFv: B1 scFv with I98H, K183S
B9: AS170036 VL1VH1-VLH98F (scFv)
scFv: B1 scFv with I98F, K183S, A234G
B10: AS170036 VL1VH1-VLH98Q (scFv)
scFv: B1 scFv with I98Q, K183S, A234G
B11: AS170036 VL1VH1-VLH98I (scFv)
scFv: B1 scFv with K183S, A234G

Where a chain is given by its changes, count along the chain named. A value given as a limit tells only on which side of the number the result lay.

The first assay deals with T1, AFP158/HLA-A*02:01 complex (human).
T1 construct: flowed over the chip as analyte; also called AFP158 peptide/HLA-A*02:01 complex
The assay is described as follows: SPR (BIAcore T200), crude scFv captured, complex flowed over. For orientation: SPR reads the build-up and loss of mass on a sensor chip optically.
Description: The experiment was carried out as follows. The crude scFv protein were captured onto the sensorchip. Different concentrations (320, 160, 40 nM) of AFP158/HLA-A*02:01 complex flowed over the sensorchip surface, and were allowed to bind the antibody fragment for 100 s followed by injection of the running buffer to allow dissociation of the complex. On-rate (kd) and off-rate (kd) were calculated based on association and dissociation curve, and were used to estimate the equilibrium dissociation constant (KD).
The 84 muteins were then tested for their selectivity. The 12 recombinant AFP158 homologous peptides/HLA-A*02:01 complex were mixed in three groups (group 1: ZNF566 and ARNTL, group 2: CDC14A, PTP4A1, BRCA2 and RCL1, group 3: OR1I1, OR51B6, OR6C1, ATG9A, RP1 and NR2E1). The binding of the 84 antibodies to these complexes were then measured by method described above.
B1 yielded an SPR binding level of 807 RU.

Regarding B2, the SPR binding level was 662 RU.

The molecule B3 yielded an SPR binding level of 819 RU.

Another assay deals with T2, AFP158/HLA-A*02:01 complex (human).
T2 construct: biotinylated on the BSP by BirA for ELISA and panning; also called biotinylated AFP158/HLA-A*02:01 complex; Bio-AFP158
The experiment in a line: SPR, crude scFv captured.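 Also: Peptide–MHC complex flowed at several concentrations over sensorchip-captured scFv, Kd derived from on- and off-rates obtained from the association and dissociation curves.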
The term Kd denotes a measure of binding affinity in units of concentration. Turning to B4, the Kd is 42 nM.

In turn, B5 registered a Kd of 96 nM.

B6 displayed a Kd of 92 nM.

For B7, the Kd was 35 nM.

In turn, B8 registered a Kd of 42 nM.

The target of another assay is T2, AFP158/HLA-A*02:01 complex. The experiment in a line: SPR; vs AS170036 VL1VH1.
The molecule B4 had an Affinity increase of 5.5 fold.

Regarding B5, the Affinity increase stood at 2.8 fold.

Molecule B6 registered an Affinity increase of 2.5 fold.

B7 returned an Affinity increase of 6.6 fold.

The molecule B8 registered an Affinity increase of 5.5 fold.

Another assay has as its target OR51B6 peptide/HLA-A*02:01 complex (recombinant) (human). The assay is described as follows: SPR.
For the molecule B9, the binding result is on record as “no binding (tested: all below 3.5 RU)”.

With B10, the binding result is recorded as “no binding (tested: all below 3.5 RU)”.

B5: the binding result is given as “no binding (tested: all below 3.5 RU)”.

Consider B6, for which the binding result is “no binding (tested: all below 3.5 RU)”.

Consider B7, for which the binding result is “no binding (tested: all below 3.5 RU)”.

B11: the binding result is listed as “no binding (tested: all below 3.5 RU)”.

Another assay addresses NR2E1 peptide/HLA-A*02:01 complex (recombinant) (human). The experiment in a line: SPR.
For the molecule B9, the binding result is reported as “no binding (tested: all below 3.5 RU)”.

As to B10, the binding result is listed as “no binding (tested: all below 3.5 RU)”.

In the case of B4, the binding result was “no binding (tested: all below 3.5 RU)”.

As for B5, the binding result was “no binding (tested: all below 3.5 RU)”.

For the molecule B6, the binding result is recorded as “no binding (tested: all below 3.5 RU)”.

Take B7: the binding result is “no binding (tested: all below 3.5 RU)”.

As to B11, the binding result was “no binding (tested: all below 3.5 RU)”.

With B8, the binding result is reported as “no binding (tested: all below 3.5 RU)”.

The target in another assay is OR1I1 peptide/HLA-A*02:01 complex (recombinant) (human). The experiment in a line: SPR.
For B9, the binding result was “no binding (tested: all below 3.5 RU)”.

Regarding B10, the binding result is “no binding (tested: all below 3.5 RU)”.

With B4, the binding result was “no binding (tested: all below 3.5 RU)”.

For B5, the binding result is listed as “no binding (tested: all below 3.5 RU)”.

Take B6: the binding result is on record as “no binding (tested: all below 3.5 RU)”.

Regarding B7, the binding result was “no binding (tested: all below 3.5 RU)”.

On to B11, for which the binding result was “no binding (tested: all below 3.5 RU)”.

B8: the binding result is recorded as “no binding (tested: all below 3.5 RU)”.

The target in the next assay is RCL1 peptide/HLA-A*02:01 complex (recombinant) (human, UniProt P16213 21-119 (Pongo pygmaeus entry)). The experiment in a line: SPR.
Turning to B9, the binding result is recorded as “no binding (tested: all below 3.5 RU)”.

Regarding B10, the binding result is reported as “no binding (tested: all below 3.5 RU)”.

Consider B4, for which the binding result is listed as “no binding (tested: all below 3.5 RU)”.

With B5, the binding result is recorded as “no binding (tested: all below 3.5 RU)”.

Consider B6, for which the binding result is listed as “no binding (tested: all below 3.5 RU)”.

Regarding B7, the binding result is listed as “no binding (tested: all below 3.5 RU)”.

Take B11: the binding result is listed as “no binding (tested: all below 3.5 RU)”.

For B8, the binding result is recorded as “no binding (tested: all below 3.5 RU)”.

The next assay deals with CDC14A peptide/HLA-A*02:01 complex (recombinant) (human). The assay is described as follows: SPR.
As for B9, the binding result is listed as “no binding (tested: all below 3.5 RU)”.

Turning to B10, the binding result is “no binding (tested: all below 3.5 RU)”.

With B4, the binding result is listed as “no binding (tested: all below 3.5 RU)”.

As for B5, the binding result is reported as “no binding (tested: all below 3.5 RU)”.

As to B6, the binding result is recorded as “no binding (tested: all below 3.5 RU)”.

In the case of B7, the binding result was “no binding (tested: all below 3.5 RU)”.

B11: the binding result is “no binding (tested: all below 3.5 RU)”.

Consider B8, for which the binding result was “no binding (tested: all below 3.5 RU)”.

A further assay has as its target PTP4A1 peptide/HLA-A*02:01 complex (recombinant) (human). The experiment in a line: SPR.
For B9, the binding result is “no binding (tested: all below 3.5 RU)”.

For the molecule B4, the binding result is on record as “no binding (tested: all below 3.5 RU)”.

In the case of B5, the binding result is reported as “no binding (tested: all below 3.5 RU)”.

In the case of B6, the binding result was “no binding (tested: all below 3.5 RU)”.

Regarding B7, the binding result is listed as “no binding (tested: all below 3.5 RU)”.

As for B11, the binding result was “no binding (tested: all below 3.5 RU)”.

For B8, the binding result is given as “no binding (tested: all below 3.5 RU)”.

A further assay deals with RP1 peptide/HLA-A*02:01 complex (recombinant) (human, UniProt P16213 21-119 (Pongo pygmaeus entry)). The assay is described as follows: SPR.
As for B9, the binding result is given as “no binding (tested: all below 3.5 RU)”.

For B10, the binding result is “no binding (tested: all below 3.5 RU)”.

As for B4, the binding result is given as “no binding (tested: all below 3.5 RU)”.

For B5, the binding result is reported as “no binding (tested: all below 3.5 RU)”.

For the molecule B6, the binding result is recorded as “no binding (tested: all below 3.5 RU)”.

Regarding B7, the binding result is given as “no binding (tested: all below 3.5 RU)”.

As for B11, the binding result was “no binding (tested: all below 3.5 RU)”.

Take B8: the binding result was “no binding (tested: all below 3.5 RU)”.

A further assay deals with ATG9A peptide/HLA-A*02:01 complex (recombinant) (human). The experiment in a line: SPR.
Consider B4, for which the binding result is “no binding (tested: all below 3.5 RU)”.

In the case of B5, the binding result is “no binding (tested: all below 3.5 RU)”.

Consider B6, for which the binding result is “no binding (tested: all below 3.5 RU)”.

With B7, the binding result is on record as “no binding (tested: all below 3.5 RU)”.

On to B8, for which the binding result is on record as “no binding (tested: all below 3.5 RU)”.

For a further assay, the target named is BRCA2 peptide/HLA-A*02:01 complex (recombinant) (human). The assay is described as follows: SPR.
Consider B9, for which the binding result is recorded as “no binding (tested: all below 3.5 RU)”.

For the molecule B10, the binding result is on record as “no binding (tested: all below 3.5 RU)”.

On to B4, for which the binding result is listed as “no binding (tested: all below 3.5 RU)”.

In the case of B5, the binding result is “no binding (tested: all below 3.5 RU)”.

B6: the binding result is recorded as “no binding (tested: all below 3.5 RU)”.

For the molecule B7, the binding result is listed as “no binding (tested: all below 3.5 RU)”.

With B11, the binding result was “no binding (tested: all below 3.5 RU)”.

As to B8, the binding result is reported as “no binding (tested: all below 3.5 RU)”.

Another assay addresses ZNF566 peptide/HLA-A*02:01 complex (recombinant) (human). The experiment in a line: SPR.
For B9, the binding result is recorded as “no binding (tested: all below 3.5 RU)”.

Consider B10, for which the binding result is “no binding (tested: all below 3.5 RU)”.

Regarding B4, the binding result is “no binding (tested: all below 3.5 RU)”.

Turning to B5, the binding result was “no binding (tested: all below 3.5 RU)”.

For B6, the binding result was “no binding (tested: all below 3.5 RU)”.

On to B7, for which the binding result was “no binding (tested: all below 3.5 RU)”.

Take B11: the binding result is given as “no binding (tested: all below 3.5 RU)”.

As for B8, the binding result was “no binding (tested: all below 3.5 RU)”.

The target of another assay is T2, AFP158/HLA-A*02:01 complex. The assay is described as follows: SPR; vs AS170036 VL1VH1. This is another data set of the same source.
For B9, the Affinity increase was greater than 2 fold.

In the case of B10, the Affinity increase is greater than 2 fold.

In turn, B4 returned an Affinity increase greater than 2 fold.

Take B5: the Affinity increase was greater than 2 fold.

As to B6, the Affinity increase is greater than 2 fold.

Take B7: the Affinity increase was greater than 2 fold.

B11 showed an Affinity increase greater than 2 fold.

With B8, the Affinity increase is greater than 2 fold.
